Article PMC7157747

Molecular target: Recombinant Surface Immunogenic Protein (rSIP) of Group B Streptococcus, expressed in E. coli (Group B Streptococcus (GBS), serotype III)
Test: SEC; Size exclusion chromatography by HPLC of purified rSIP; PSS-pro kit as standard curve for molecular mass; 6 M urea used as monomer control

## Recombinant Surface Immunogenic Protein (rSIP) of Group B Streptococcus, expressed in E. coli (natural protein)
  stoichiometry N: 2
